For 10 sequences, protein stability index results are on record in the supplement of paper PMC10567573.

± gives the standard deviation.

The series is described as follows: protein stability index of a GFP-peptide fusion (GPS, HEK-293T) (PSI 1-6); higher = more stable.
Setting [1] is: treatment: DMSO, c terminus: a fixed tail appended.
Where [2] appears, read: treatment: MLN4924 1 uM, 8 h, c terminus: a fixed tail appended.
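Also: 24-mer peptide tiles fused after GFP, lentivirally expressed, FACS-sorted into six equal bins by GFP/DsRed ratio, decoded by Illumina sequencing, PSI is the read-weighted mean bin number.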

Take YKCSDCGKTFKQSSNLGQHQRIHT [ZNF232]: the protein stability index runs as follows: under setting [1], 4.22 ± 0.18; under setting [2], 4.3 ± 0.45.
On to YLTEGLLQFTILLSLIGVRVDVDT [NFE2L1], for which the protein stability index was found to be 2.66 ± 0.15 under setting [1] and 3.25 ± 0.35 under setting [2].
Turning to YMIHEPEPHILLFRRPLPKKPKK [CKS1B], the protein stability index reads like this: (treatment: DMSO, c terminus: native) 2.55 ± 0.23; (treatment: MLN4924 1 uM, 8 h, c terminus: native) 2.99 ± 0.5.
As for YQLLATHVPTVWAIDQYRVCQEVL [RHOBTB1], the protein stability index is, setting by setting: under setting [1], 2.61 ± 0.59; under setting [2], 2.38 ± 0.47.
The sequence YSHEVSLTADSRKSHLIFPQPNYA [PCDHGA10] had a protein stability index under setting [1] of 2.79 ± 0.48 and a protein stability index under setting [2] of 2.74 ± 0.29.
The like results for YSKTFQRSNVDFLETPELTSTMLV [NECAB1] were, in that order, 2.18 ± 0.37 and 2.39 ± 0.35.
The matching figures for YSLAEDTIQGVPLSSYISINSDTG [PCDHGA10]: 3.53 ± 0.2 and 3.47 ± 0.28.
In the case of YTKLPSSLQSTGKCLLYCNGVLEP [SLC25A39], the protein stability index is, setting by setting: under setting [1], 2.64 ± 0.62; under setting [2], 2.23 ± 0.35.
For the sequence YTVKDKATGEVLGQFYLDLYPREG [NLN], the protein stability index came to 3.1 ± 0.69 under setting [1] and 2.8 ± 0.77 under setting [2].
The matching figures for YYSVETVTLLVALKVRYRERITIL [PPP2CA]: 2.63 ± 0.69 and 2.56 ± 0.58.
